Assay results from patent publication US20170165339A1.

Target: HLA-A*24 (human)
Test: UV peptide-exchange ELISA, yield grade

Row | Binder | peptide exchange yield [%]
1 | TYTTVPRVAF [… (SEQ ID NO: 172)] | > 75
2 | VYPWLGALL [… (SEQ ID NO: 177)] | > 75
3 | IFIEVFSHF [… (SEQ ID NO: 178)] | 50 to 75
4 | MYDSYWRQF [… (SEQ ID NO: 179)] | > 75
5 | IYDDSFIRPVTF [… (SEQ ID NO: 180)] | 50 to 75
6 | LYLDIINLF [… (SEQ ID NO: 181)] | > 75
7 | IYQLDTASI [… (SEQ ID NO: 182)] | 50 to 75
8 | VFTSTARAF [… (SEQ ID NO: 183)] | 50 to 75
9 | VFQNFPLLF [… (SEQ ID NO: 184)] | > 75
10 | IYKVGAPTI [… (SEQ ID NO: 185)] | 50 to 75
11 | IFPQFLYQF [… (SEQ ID NO: 186)] | > 75
12 | TYLRDQHFL [… (SEQ ID NO: 187)] | > 75
13 | RYFKGLVF [RYFKGLVF (SEQ ID NO: 188)] | 50 to 75
14 | WYVNGVNYF [… (SEQ ID NO: 189)] | 20 to 49
15 | GFFIFNERF [… (SEQ ID NO: 190)] | 50 to 75
16 | VFKASKITF [… (SEQ ID NO: 191)] | 50 to 75
17 | SYALLTYMI [… (SEQ ID NO: 192)] | > 75
18 | RFHPTPLLL [… (SEQ ID NO: 193)] | > 75
19 | EFGSLHLEFL [… (SEQ ID NO: 194)] | < 20
20 | LYLDKATLI [… (SEQ ID NO: 198)] | 50 to 75
21 | FYSRLLQKF [… (SEQ ID NO: 203)] | 50 to 75
22 | VHIPEVYLI [… (SEQ ID NO: 205)] | 50 to 75
23 | EYQENFLSF [… (SEQ ID NO: 206)] | 50 to 75
24 | TYTQDFNKF [… (SEQ ID NO: 208)] | 50 to 75
25 | IYTMIYRNL [… (SEQ ID NO: 210)] | > 75

Row | Binder | peptide exchange yield [%]
26 | YYLEVGKTLI [… (SEQ ID NO: 211)] | > 75
27 | LYLKLWNLI [… (SEQ ID NO: 214)] | 50 to 75
28 | YFDKVVTL [YFDKVVTL (SEQ ID NO: 215)] | 20 to 49
29 | QYSSVFKSL [… (SEQ ID NO: 216)] | > 75
30 | FFPPTRQMGLLF [… (SEQ ID NO: 217)] | > 75
31 | EYPLVINTL [… (SEQ ID NO: 219)] | 50 to 75
32 | RYSTGLAGNLL [… (SEQ ID NO: 221)] | 50 to 75
33 | KYIPYKYVI [… (SEQ ID NO: 223)] | 50 to 75
34 | QYLENLEKL [… (SEQ ID NO: 224)] | 50 to 75
35 | YYVYIMNHL [… (SEQ ID NO: 225)] | 50 to 75
36 | VYRDETGELF [… (SEQ ID NO: 226)] | 50 to 75
37 | IFLDYEAGTLSF [… (SEQ ID NO: 227)] | > 75
38 | KYTSWYVAL [… (SEQ ID NO: 228)] | > 75
39 | KYMVYPQTF [… (SEQ ID NO: 267)] | > 75
40 | LYHDIFSRL [… (SEQ ID NO: 271)] | > 75
41 | QYLQDAYSF [… (SEQ ID NO: 272)] | > 75
42 | TYIKPISKL [… (SEQ ID NO: 273)] | 50 to 75
43 | AYLHSHALI [… (SEQ ID NO: 274)] | > 75
44 | EYINQGDLHEF [… (SEQ ID NO: 275)] | 50 to 75
45 | VYGFQWRHF [… (SEQ ID NO: 276)] | > 75
46 | RYISDQLFTNF [… (SEQ ID NO: 278)] | > 75
47 | TYIESASEL [… (SEQ ID NO: 279)] | 50 to 75
48 | RYPDNLKHLYL [… (SEQ ID NO: 280)] | > 75
49 | KFVDSTFYL [… (SEQ ID NO: 282)] | > 75
50 | TYGDAGLTYTF [… (SEQ ID NO: 283)] | 50 to 75

Row | Binder | peptide exchange yield [%]
51 | RYLNKAFHI [… (SEQ ID NO: 284)] | 50 to 75
52 | RYPDNLKHL [… (SEQ ID NO: 286)] | 20 to 49
53 | VYVSDIQEL [… (SEQ ID NO: 288)] | 50 to 75
54 | KYPVEWAKF [… (SEQ ID NO: 289)] | > 75
55 | HYSQELSLLYL [… (SEQ ID NO: 158)] | > 75
56 | LYNKGFIYL [… (SEQ ID NO: 159)] | > 75
57 | VYTLDIPVL [… (SEQ ID NO: 160)] | > 75
58 | IYLVSIPEL [… (SEQ ID NO: 161)] | > 75
59 | VFTRVSSFL [… (SEQ ID NO: 162)] | 50 to 75
60 | DYLKGLASF [… (SEQ ID NO: 163)] | > 75
61 | KFSSFSLFF [… (SEQ ID NO: 164)] | 50 to 75
62 | DYTTWTALL [… (SEQ ID NO: 165)] | > 75
63 | YYVESGKLF [… (SEQ ID NO: 166)] | > 75
64 | NYINRILKL [… (SEQ ID NO: 167)] | > 75
65 | KYQDILETI [… (SEQ ID NO: 168)] | > 75
66 | AYTLIAPNI [… (SEQ ID NO: 169)] | 50 to 75
67 | VYEDQVGKF [… (SEQ ID NO: 170)] | 20 to 49
68 | LFIPSSKLLFL [… (SEQ ID NO: 171)] | 50 to 75
69 | IYSWILDHF [… (SEQ ID NO: 173)] | > 75
70 | VYVGGGQIIHL [… (SEQ ID NO: 174)] | 50 to 75
71 | YYEVHKELF [… (SEQ ID NO: 175)] | > 75
72 | EYNQWFTKL [… (SEQ ID NO: 176)] | 50 to 75
73 | TYSVSFPMF [… (SEQ ID NO: 195)] | > 75
74 | LYIDRPLPYL [… (SEQ ID NO: 196)] | 50 to 75
75 | EYSLFPGQVVI [… (SEQ ID NO: 197)] | 50 to 75
